The values that follow come from article PMC6333830.

The target in assay [1] is KRAS4B GTPase domain (residues 1-173, C118S), un-phosphorylated (human) (UniProt P01116).
Assay [2] addresses Src-phosphorylated 15N-KRAS (residues 1-173, C118S), not separated (human) (UniProt P01116).
Assay [3] concerns the target KRAS4B GTPase domain (residues 1-173, C118S), un-phosphorylated (human) (UniProt P01116). This is another data set of the same source.
Assay [4] concerns the target Src-phosphorylated 15N-KRAS (residues 1-173, C118S), not separated (human) (UniProt P01116). This is another data set of the same source.

On to “catalytic domain of Son of Sevenless 1 (SOS^cat, residues 564-1049) (from UniProt Q07889 564-1049) (domain or fragment)”, for which the fold acceleration of nucleotide exchange (GDP to GTPγS) of KRAS by SOS^cat at a ratio of 1:600, real-time NMR in assay [1] was 17 fold. Moreover, the fold acceleration of nucleotide exchange (GDP to GTPγS) of pKRAS by SOS^cat at a ratio of 1:600, real-time NMR in assay [2] was under 3 fold.

Consider “GAP domain of human RASA1 (residues 715-1074) (domain or fragment)”, for which the acceleration of the rate of GTP hydrolysis of KRAS by the RASA1 GAP domain at a 1:3000 molar ratio, real-time NMR in assay [3] is over 300%. Further, in assay [4], the increase of the rate of GTP hydrolysis of pKRAS by the RASA1 GAP domain at a 1:3000 molar ratio, real-time NMR is under 20%.
